Earlier results, collected in publication PMC10910082.
Read-outs that look alike come from different tables or passages of the source. One block for each substance: values may come before it.

Key:
CD80 (Homo sapiens) = CD80 (Homo sapiens) (UniProt P33681)
CD86 (Homo sapiens) = CD86 (Homo sapiens) (UniProt P42081)
CD155 (Homo sapiens) [1] = target: CD155 (Homo sapiens) (UniProt P15151)
CD155 (Homo sapiens) [2] = target: CD155 (Homo sapiens) (UniProt P15151); remark: listed apart in the source

UniProt P33681, sequence (P33681 35-242): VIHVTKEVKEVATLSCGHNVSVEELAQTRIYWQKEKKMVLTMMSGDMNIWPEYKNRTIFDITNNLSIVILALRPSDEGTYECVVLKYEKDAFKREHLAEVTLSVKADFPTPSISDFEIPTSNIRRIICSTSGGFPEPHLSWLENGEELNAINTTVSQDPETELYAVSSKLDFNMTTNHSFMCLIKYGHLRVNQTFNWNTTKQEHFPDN
UniProt P42081, sequence (P42081 24-247): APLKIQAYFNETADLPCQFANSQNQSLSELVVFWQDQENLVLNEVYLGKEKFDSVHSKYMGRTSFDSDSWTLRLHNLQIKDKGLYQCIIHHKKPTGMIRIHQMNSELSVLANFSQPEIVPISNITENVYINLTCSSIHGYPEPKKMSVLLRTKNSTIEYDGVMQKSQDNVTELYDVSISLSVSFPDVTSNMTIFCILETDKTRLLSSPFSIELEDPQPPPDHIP

Kd (CD80 (Homo sapiens)): 4000 nM
Kd (CD86 (Homo sapiens)): 27500 nM
Substance: CD28 (from UniProt P10747)

Kd (CD155 (Homo sapiens) [1]): 116 nM
Substance: CD226 (from UniProt Q15762)

Kd (CD155 (Homo sapiens) [2]): 2 nM
Substance: TIGIT (from UniProt Q495A1)
